{"source": "patent US20130052176", "about": "“APTAMER FOR NGF AND USE THEREOF” (SHIONOGI & CO., LTD, published 2013)", "key": {"NT-3": {"biological_target": "T1, NT-3 (human, UniProt P20783 P20783:139-257)", "T1 sequence": "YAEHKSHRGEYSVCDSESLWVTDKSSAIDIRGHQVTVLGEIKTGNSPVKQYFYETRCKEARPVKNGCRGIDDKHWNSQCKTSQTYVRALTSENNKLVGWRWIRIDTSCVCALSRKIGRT", "assay": "SPR; binding to NT-3 not observed; TF-1 IC50 >1000 nM", "details": "tags: R&D Systems; chain copies: 2"}, "[1]": {"biological_target": "T2, NGF (nerve growth factor) (human, UniProt P01138 P01138:122-241)", "T2 sequence (P01138 122-241, one chain of several)": "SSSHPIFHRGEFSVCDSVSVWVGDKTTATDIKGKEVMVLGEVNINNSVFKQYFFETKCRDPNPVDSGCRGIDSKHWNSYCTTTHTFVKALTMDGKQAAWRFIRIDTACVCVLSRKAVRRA", "assay": "cell_activity; neurite outgrowth, NGF 0.38 nM; SPR binding; blocks NGF-TrkA and NGF-p75; TF-1 IC50 0.07 nM", "details": "tags: amine-coupled to CM5 chip in SPR; soluble in cell assays; chain copies: 2"}, "[2]": {"biological_target": "T2, NGF (nerve growth factor)", "assay": "cell_activity; neurite outgrowth, NGF 0.38 nM; TF-1 IC50 0.075 nM", "details": "tags: human NGF; chain copies: 2", "method": "(§1) The neurite outgrowth inhibitory activity of the aptamer obtained in Example 1 was evaluated by using Neuroscreen-1 cell, which is a subclone of PC-12 cells.\n(§2) The cells (2500 cells per well) were cultured for one day in an RPMI-1640 medium containing 2.5% horse serum and 1.25% fetal bovine serum in a 96 well flat-bottom plate coated with collagen type IV. […] Two days later, the cytoplasm and nuclei were stained using Cellomics Neurite Outgrowth Kit (manufactured by Thermo Scientific), and neurite length per cell was measured by Cellomics ArrayScan VTI (manufactured by Thermo Scientific). With the neurite length per cell obtained by the addition of NGF alone as inhibitory activity 0%, and that of the cell obtained by NGF free culture for 2 days as inhibitory activity 100%, the inhibitory activity of the aptamer was calculated from the neurite length per cell obtained by culturing with the addition of NGF and the aptamer in mixture. When the inhibitory activity was 0% or below, ‘0%’ is indicated."}, "[3]": {"biological_target": "T2, NGF (nerve growth factor)", "assay": "cell_activity; neurite outgrowth, NGF 0.38 nM; SPR binding; TF-1 IC50 >0.3 nM", "details": "tags: amine-coupled to CM5 chip in SPR; soluble in cell assays; chain copies: 2", "method": "as §1, §2"}, "[4]": {"biological_target": "T2, NGF (nerve growth factor)", "assay": "cell_activity; neurite outgrowth, NGF 0.38 nM; TF-1 IC50 0.348 nM", "details": "tags: human NGF; chain copies: 2", "method": "as §1, §2"}, "[5]": {"biological_target": "T2, NGF (nerve growth factor)", "assay": "cell_activity; neurite outgrowth, NGF 0.38 nM; SPR binding; TF-1 IC50 0.078 nM", "details": "tags: amine-coupled to CM5 chip in SPR; soluble in cell assays; chain copies: 2", "method": "as §1, §2"}, "[6]": {"biological_target": "T2, NGF (nerve growth factor)", "assay": "cell_activity; neurite outgrowth, NGF 0.38 nM; SPR binding; TF-1 IC50 0.058 nM", "details": "tags: amine-coupled to CM5 chip in SPR; soluble in cell assays; chain copies: 2"}, "[7]": {"biological_target": "T2, NGF (nerve growth factor)", "assay": "cell_activity; neurite outgrowth, NGF 0.38 nM; SPR binding; TF-1 IC50 0.1 nM", "details": "tags: amine-coupled to CM5 chip in SPR; soluble in cell assays; chain copies: 2"}, "[8]": {"biological_target": "T2, NGF (nerve growth factor)", "assay": "cell_activity; neurite outgrowth, NGF 1.1 nM; SPR binding; TF-1 IC50 4.3 nM", "details": "tags: amine-coupled to CM5 chip in SPR; soluble in cell assays; chain copies: 2"}, "[9]": {"biological_target": "T2, NGF (nerve growth factor)", "assay": "cell_activity; neurite outgrowth, NGF 1.1 nM; SPR binding; TF-1 IC50 >10 nM", "details": "tags: amine-coupled to CM5 chip in SPR; soluble in cell assays; chain copies: 2", "method": "as §1, §2"}, "[10]": {"biological_target": "T2, NGF (nerve growth factor)", "assay": "cell_activity; neurite outgrowth, NGF 1.1 nM; SPR binding; TF-1 IC50 6.8 nM", "details": "tags: amine-coupled to CM5 chip in SPR; soluble in cell assays; chain copies: 2", "method": "as §1, §2"}, "[11]": {"biological_target": "T2, NGF (nerve growth factor)", "assay": "cell_activity; neurite outgrowth, NGF 0.38 nM; SPR binding; TF-1 IC50 0.041 nM", "details": "tags: amine-coupled to CM5 chip in SPR; soluble in cell assays; chain copies: 2", "method": "as §1, §2"}, "[12]": {"biological_target": "T2, NGF (nerve growth factor)", "assay": "cell_activity; neurite outgrowth, NGF 1.1 nM; SPR binding; TF-1 IC50 3.4 nM", "details": "tags: amine-coupled to CM5 chip in SPR; soluble in cell assays; chain copies: 2"}, "[13]": {"biological_target": "T2, NGF (nerve growth factor)", "assay": "cell_activity; neurite outgrowth, NGF 0.38 nM; TF-1 IC50 0.065 nM", "details": "tags: human NGF; chain copies: 2", "method": "as §1, §2"}}}
{"binder": "GGGAGACUCGCCAGAGUUGAAAGAAACCCAAAUAAGUGUGCGCAC (ssRNA, 2'-F pyrimidines; 2'-OMe purines except 2'-OH at 3,5,19-22,24,26; 5' idT and 3' idT)", "note": "[aptamer ID 26(2)]", "values": [{"measurement": "binding result", "setting": "NT-3", "value": "no binding"}, {"measurement": "IC50", "setting": "[1]", "value": 60, "unit": "pM"}]}
{"binder": "GGGAGACUCGCCAGAGUUGAAAGAAACCCAAAUAAGUGUGCGCAC (mixed, 5' and 3' idT; 2'-OMe purines except ribo g3,g19,a20,a26; 2'-F c27,c28,c41,c43; dC29,dT39; other pyrimidines 2'-OMe)", "note": "[aptamer ID 26(55)]", "values": [{"measurement": "IC50", "setting": "[2]", "value": 87, "unit": "pM"}]}
{"binder": "GGGAGACUCGCCAGAGUUGAAAGAAACCCAAAUAAGUGUGCGCAC (ssRNA, 2'-F pyrimidines except 2'-OMe at 7; 2'-OMe purines except 2'-OH at 3,19,20,26; PS between 18 and 19; 5' idT and 3' idT)", "note": "[aptamer ID 26(37)]", "values": [{"measurement": "IC50", "setting": "[3]", "value": 181, "unit": "pM"}]}
{"binder": "GGGAGACUCGCCAGAGUUGAAAGAAACCCAAAUAAGUGUGCGCAC (ssRNA, 2'-F pyrimidines except 2'-OMe at 7; 2'-OMe purines except 2'-OH at 3,19,20,26; PS between 3 and 4; 5' idT and 3' idT)", "note": "[aptamer ID 26(36)]", "values": [{"measurement": "IC50", "setting": "[3]", "value": 211, "unit": "pM"}]}
{"binder": "GGGAGACUCGCCAGAGUUGAAAGAAACCCAAAUAAGUGUGCGCAC (ssRNA, 5' PEG40TS4 via ssH linker; 3' idT; 2'-F all pyrimidines; 2'-OMe purines except ribo g3,g19,a20,a26)", "note": "[aptamer ID 26(69)]", "values": [{"measurement": "IC50", "setting": "[4]", "value": 157, "unit": "pM"}]}
{"binder": "GGGAGACUCGCCAGAGUUGAAAGAAACCCAAAUAAGUGUGCGCAC (ssRNA, 2'-F pyrimidines except 2'-OMe at 7,8,9,11,12,17,18,33,37,45 and LNA at c29; 2'-OMe purines except 2'-OH at 3,19,20,26; 5' idT and 3' idT)", "note": "[aptamer ID 26(61)]", "values": [{"measurement": "IC50", "setting": "[5]", "value": 112, "unit": "pM"}]}
{"binder": "GGGAGACUCGCCAGAGUUGAAAGAAACCCAAAUAAGUGUGCGCAC (ssRNA, 2'-F pyrimidines; 2'-OMe purines except 2'-OH at 3,5,19-22; 5' idT and 3' idT)", "note": "[aptamer ID 26(11)]", "values": [{"measurement": "IC50", "setting": "[6]", "value": 87, "unit": "pM"}]}
{"binder": "GGGAGACUCGCCAGAGUUGAAAGAAACCCAAAUAAGUGUGCGCAC (mixed, 2'-F pyrimidines except 2'-OMe at 7,8,9,11,12,17,18,33,37,45; 2'-OMe purines except 2'-OH at 3,19,20 and dA at 26; 5' idT and 3' idT)", "note": "[aptamer ID 26(53)]", "values": [{"measurement": "IC50", "setting": "[5]", "value": 128, "unit": "pM"}]}
{"binder": "GGGAGACUCGCCAGAGUUGAAAGAAACCCAAAUAAGUGUGCGCAC (ssRNA, 2'-F pyrimidines; 2'-OMe purines except 2'-OH at 3,5,19-23,25; 5' idT and 3' idT)", "note": "[aptamer ID 26(1)]", "values": [{"measurement": "IC50", "setting": "[7]", "value": 60, "unit": "pM"}]}
{"binder": "GGGAGACUCGCCAGAGUUGAAAGAAACCCAAAUAAGUGUGCGCAC (ssRNA, 2'-F pyrimidines; 2'-OMe at 6,10,13-16; other purines 2'-OH)", "note": "[aptamer ID 26(3)]", "values": [{"measurement": "IC50", "setting": "[8]", "value": "< 1000", "unit": "pM"}]}
{"binder": "GGGAGACUCGCCAGAGUUGAAAGAAACCCAAAUAAGUGUGCGCAC (ssRNA, 2'-F pyrimidines; 2'-OMe at 22; other purines 2'-OH)", "note": "[aptamer ID 26(8)]", "values": [{"measurement": "IC50", "setting": "[9]", "value": "< 1000", "unit": "pM"}]}
{"binder": "GGGAGACUCGCCAGAGUUGAAAGAAACCCAAAUAAGUGUGCGCAC (ssRNA, 2'-F pyrimidines; 2'-OMe at 1,2,4,5,23-26; other purines 2'-OH)", "note": "[aptamer ID 26(4)]", "values": [{"measurement": "IC50", "setting": "[10]", "value": "< 1000", "unit": "pM"}]}
{"binder": "GGGAGACUCGCCAGAGUUGAAAGAAACCCAAAUAAGUGUGCGCAC (ssRNA, 5' PEG80TS2 via ssH linker; 3' idT; 2'-F all pyrimidines; 2'-OMe purines except ribo g3,g19,a20,a26)", "note": "[aptamer ID 26(68)]", "values": [{"measurement": "IC50", "setting": "[4]", "value": 128, "unit": "pM"}]}
{"binder": "GGGAGACUCGCCAGAGUUGAAAGAAACCCAAAUAAGUGUGCGCAC (ssRNA, 2'-F pyrimidines; 2'-OMe purines except 2'-OH at 3,5,19-22,26; 5' idT and 3' idT)", "note": "[aptamer ID 26(9)]", "values": [{"measurement": "IC50", "setting": "[11]", "value": 52, "unit": "pM"}]}
{"binder": "GGGAGACUCGCCAGAGUUGAAAGAAACCCAAAUAAGUGUGCGCAC (ssRNA, 2'-F pyrimidines; 2'-OMe at 30-32,34,35; other purines 2'-OH)", "note": "[aptamer ID 26(5)]", "values": [{"measurement": "IC50", "setting": "[12]", "value": "< 1000", "unit": "pM"}]}
{"binder": "GGGAGACUCGCCAGAGUUGAAAGAAACCCAAAUAAGUGUGCGCAC (mixed, 5' and 3' idT; 2'-OMe purines except ribo g3,g19,a20,a26; 2'-F c28,u39,c41,c43; dC27,dC29; other pyrimidines 2'-OMe)", "note": "[aptamer ID 26(54)]", "values": [{"measurement": "IC50", "setting": "[13]", "value": 97, "unit": "pM"}]}
